Laboratory results published in patent US7247703.

Each binder was assayed against HLA-A2.1 class I MHC molecule on T2 cells (human) (assay: T2 class I MHC stabilization assay, anti-HLA-A2 immunofluorescent staining, peptide vs medium alone). Conditions: remark: other sources report otherwise.

% Increase of class I stabilization on T2 [%]	Binder
20	CLTSTVQLV [p 789-797 HER-2/neu peptide …]
10	TLSPGKNGV [p 1172-1180 HER-2/neu peptide …]
20	HLYQGCQVV [p 48-56 HER-2/neu peptide …]
